Reference: paper PMC9266912, “CITF1 Functions Downstream of SPL7 to Specifically Regulate Cu Uptake in Arabidopsis”
Changes are numbered by the printed parent chain.

T1: His-SPL7 (SBP domain) (Arabidopsis, UniProt Q8S9G8 122-228)
T1 sequence: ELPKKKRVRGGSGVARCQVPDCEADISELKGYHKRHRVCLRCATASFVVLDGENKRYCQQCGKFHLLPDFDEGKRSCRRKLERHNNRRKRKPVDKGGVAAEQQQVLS

B1: ProCITF1-G (dsDNA)
DNA 1: CCATTTGTACTGCATAAAGACCCCCCACGTACATACAT
DNA 2: ATGTATGTACGTGGGGGGTCTTTATGCAGTACAAATGG
B2: mProCITF1-G (dsDNA)
DNA 1: B1 DNA 1 with T8G, A9C, T30G, A31C
DNA 2: B1 DNA 2 with T8G, A9C, T30G, A31C
B3: ProFRO5-G (dsDNA)
DNA 1: CTATCATGTACGTTTTTAAGAGTTTCGTACAAATTCACGT
DNA 2: ACGTGAATTTGTACGAAACTCTTAAAAACGTACATGATAG
B4: ProCOPT2-G (dsDNA)
DNA 1: GATGATGTACTTGTACTACAGTACAACACATAC
DNA 2: GTATGTGTTGTACTGTAGTACAAGTACATCATC
B5: ProFRO4-G (dsDNA)
DNA 1: ACCCGTACAACGTATTCGTTACGAACCAATTTCTA
DNA 2: TAGAAATTGGTTCGTAACGAATACGTTGTACGGGT

Experiments:
His-SPL7 (SBP domain) [1] = molecular target: T1, His-SPL7 (SBP domain); assay: EMSA; Chemiluminescent EMSA Kit (Beyotime), manufacturer's protocol; buffer, salt, pH and temperature not stated; conditions: protein: recombinant; tags: 6xHis (pET-28a); label: 5' biotin (probe); blunt
His-SPL7 (SBP domain) [2] = molecular target: T1, His-SPL7 (SBP domain); assay: competition; cold mutant against biotin-N1; Chemiluminescent EMSA Kit (Beyotime), manufacturer's protocol; buffer, salt, pH and temperature not stated; conditions: protein: recombinant; tags: 6xHis (pET-28a); blunt

| Binder | binding result (His-SPL7 (SBP domain) [1]) | binding result (His-SPL7 (SBP domain) [2]) |
| --- | --- | --- |
| B1 | binds |  |
| B2 |  | no binding |
| B3 | binds |  |
| B4 | binds |  |
| B5 | binds |  |
